We go through one molecule from PMC5171940 (2016).

Where no end group is shown, it is not given here.

Test [1] addresses T1, Aβ monomers on the SPR chip: biotinylated Aβ 11–28 (also: biotin, position not given here).
T1 chain: EVHHQKLVFFAEDVGSNK
Nature of the test: SPR.

Test [2] deals with Aβ oligomers: soluble prefibrillar aggregates of biotinylated Aβ(1–42) (biotin (position not given)). Nature of the test: SPR. A general note: In SPR one partner is held on a chip, and binding of the other changes the refractive index at the surface.
Aβ oligomers: soluble prefibrillar aggregates of biotinylated Aβ(1–42) (biotin (position not given)), sequence (P05067 672-713): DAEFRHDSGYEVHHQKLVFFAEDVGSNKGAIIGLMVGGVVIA

B1: Crenezumab, fully humanized anti-Aβ monoclonal IgG4 (antibody, V domains shown)
VH: EVQLVESGGGLVQPGGSLRLSCAASGFTFSSYGMSWVRQAPGKGLELVASINSNGGSTYYPDSVKGRFTISRDNAKNSLYLQMNSLRAEDTAVYYCASGDYWGQGTTVTVSS
VL: DIVMTQSPLSLPVTPGEPASISCRSSQSLVYSNGDTYLHWYLQKPGQSPQLLIYKVSNRFSGVPDRFSGSGSGTDFTLKISRVEAEDVGVYYCSQSTHVPWTFGQGTKVEIK
The term Kd denotes the concentration at which binding is half-saturated. Turning to B1, the figures for the Kd in test [1] and in test [2] were 3.2 nM and 0.42 nM, respectively.
